Laboratory results reported in US12485079B2, “Compositions and methods relating to pigmentation” (Alastin Skincare, Inc., priority 2020, dated 2025).

Columns and labels:
[1] = test system: melanogenic genes in melanocytes; test: Gene expression study (RNA sequencing) in PGE2-induced melanocytes; type: cell-based, human
Method: (§1) Four cell types associated with pigmentation pathways-melanocytes, keratinocytes, fibroblasts and endothelial (HUVEC) cells-were analyzed for gene expression.
(§2) To simulate the UV stimulatory pigmentation pathway process, melanocytes were pre-treated with PGE2, a normal direct consequence of UV light exposure usually emanating from exposed keratinocytes. After the 48 hour attachment culture, these melanocytes were induced with 10 uM PGE2 in melanocyte media for 24 hrs. The four primary human adult dermal cell lines were cultured and plated in well plates in triplicate and then treated with 11 different compound treatments (plus DMSO control). After 48 hours of attachment culture, the remaining fibroblasts, HUVECs and keratinocytes were treated with the test compounds listed in Table 6.
(§3) After 24 hours of compound exposure, RNA lysate preparation was carried out and samples were shipped to MedGenome for RNA extraction, library construction and sequencing to 25M paired end 100 bp reads per sample. Library prep and sequencing was completed at MedGenome.

melanogenic genes = test: Cell line melanogenic gene activity testing, overall conclusion; type: cell-based, human; conditions: conclusion over melanocytes, keratinocytes, HUVECs
Method: as §1, §2, §3

[2] = test system: melanocytes (melanin production); test: In vitro melanocyte comparative analysis via absorbance readings (Example 4); type: cell-based; conditions: for Absorbance 405 nm / Absorbance 490 nm / Absorbance 492 nm: melanocyte lysates, 4 days
Method: Melanocytes were cultured in 6-well plates containing growth media. Once confluent, 2 concentrations of each of the 10 compounds were added to the cells in triplicate wells for 4 days. There were a total of eleven 6-well plates, one for each compound treatment and one for the vehicle control. Absorbance readings were taken on the lysates prepared for each well of the 6-well plates, normalizing for cells counts. […] Additional validation was carried out using MSH addition to media to confirm increased stimulation of melanin production. The following compounds used in this study are seen in Table 7.

[3] = test system: PMEL, tyrosinase genes, MC1/4R, EDNRB, MITF, ERK1/2, JNK, AKT1; test: Gene expression studies of Example 5; type: cell-based
Description: The methods similar to Examples 3-4 were used to measure expression of PMEL, tyrosinase genes, MC1/4R, EDNRB, MITF, ERK1/2, JNK, and ANKT1.
FIGS. 10A-10D illustrates the expression of PMEL (FIG. 10A), Tyrosinase genes (FIG. 10B), MC1/4R (FIG. 10C), and EDNRB (FIG. 10D) after treatment of endothelial cells with lactoferrin (Lacto), peptide derived from lactoferrin (TCV), hexapeptide-12 (Hex12), tripeptide-1 and hexapeptide-12 (TriHex), hexapeptide-11 (Hex11), tranexamic acid (Tran acid) octapeptide (Octa), phosphatidylserine (phos), Cannabidiol (CBD), and all (total).
MITF is regulated by phosphorylation. Specifically, the MAPK and Akt pathways are known to phosphorylate MITF at certain sites. FIGS. 12A-12C illustrate the expression of ERK1/2 (MAPK3/MAPK1) (FIG. 12A), JNK (FIG. 12B), AKT1 (FIG. 12C) after treatment of endothelial cells with lactoferrin (Lacto), peptide derived from lactoferrin (TCV), hexapeptide-12 (Hex12), tripeptide-1 and hexapeptide-12 (TriHex), hexapeptide-11 (Hex11), octapeptide (Octa), phosphatidylserine (phos), Cannabidiol (CBD), and all (total).

[4] = test system: hTERT-immortalized dermal melanocytes; test: Melanocyte assay, absorbance of lysate pellets (Example 6); type: cell-based, human; conditions: melanocyte lysate pellet, 5 days
Method: hTERT-immortalized dermal melanocytes were treated with various compounds.
Stocks of compounds 1 through 10 on the list below were suspended in either complete melanocyte growth media or DMSO (indicated in parentheses.) Each compound re-suspension was then diluted in melanocyte growth media to the final concentrations in Table 9.
Lysates were prepared for each sample. Briefly, 6.6×10^5 cells from each sample was spun down and collected in a vial. 150 uL of CHAPS lysis buffer was added to each duplicate sample, vortexed and placed in a dry-ice/ethanol bath for 2 minutes, then left at room temp until completed thawed. This freeze thaw was done one more time, for a total of two freeze/thaw cycles. The lysate samples were spun for 15 minutes at 14,800 rpm. The supernatant was removed, leaving a black pellet in the vial. The pellet was re-suspended in 100 uL of a 1 M NaOH/10% DMSO solution and incubated at 80° C. for 90 minutes, pipet mixing at 30 minutes, 60 minutes and at 90 minutes.
100 uL of each duplicate sample at each concentration was added to individual wells of a flat bottom 96 well plate and absorbance readings were taken at 405 nm, 490 nm and 492 nm on the Envision 2103 Multilabel Reader.

[5] = test system: hTERT-immortalized dermal melanocytes; test: Melanocyte assay, daily inspection of morphology and survival (Example 6); conditions: both 500 and 1000 ug/mL
Method: Melanocytes were initially plated in 6-well tissue culture plate (1.5×10^3 cells per well) in melanocyte growth media (Dermal Cell Basal Medium (ATCC® PCS-200-030 supplemented with Melanocyte Growth Kit (ATCC® PCS-200-041). Melanocytes were then expanded into 10 cm tissue culture plates at concentrations recommended by ATCC. The cells appear to fully adhere to the plate/dish while culturing with a webbed morphology. Cells were cultured at 37° C. 5% CO2 incubator.
Once the melanocytes were 100% confluent in 6-well plates, the melanocyte growth media was removed and the melanocytes were treated with media containing the above compounds; duplicate wells for each compound/concentration listed above. The duplicate vehicle control wells were fed melanocyte growth media only or melanocyte growth media with DMSO (10 uL per 10 mL melanocyte growth media).
The cells were fed the appropriate media for the next 5 days. Each day, the cells were inspected for morphology.

B1: Lactoferrin (protein, UniProt P02788 20-710, looked up)
Lactotransferrin: GRRRSVQWCAVSQPEATKCFQWQRNMRKVRGPPVSCIKRDSPIQCIQAIAENRADAVTLDGGFIYEAGLAPYKLRPVAAEVYGTERQPRTHYYAVAVVKKGGSFQLNELQGLKSCHTGLRRTAGWNVPIGTLRPFLNWTGPPEPIEAAVARFFSASCVPGADKGQFPNLCRLCAGTGENKCAFSSQEPYFSYSGAFKCLRDGAGDVAFIRESTVFEDLSDEAERDEYELLCPDNTRKPVDKFKDCHLARVPSHAVVARSVNGKEDAIWNLLRQAQEKFGKDKSPKFQLFGSPSGQKDLLFKDSAIGFSRVPPRIDSGLYLGSGYFTAIQNLRKSEEEVAARRARVVWCAVGEQELRKCNQWSGLSEGSVTCSSASTTEDCIALVLKGEADAMSLDGGYVYTAGKCGLVPVLAENYKSQQSSDPDPNCVDRPVEGYLAVAVVRRSDTSLTWNSVKGKKSCHTAVDRTAGWNIPMGLLFNQTGSCKFDEYFSQSCAPGSDPRSNLCALCIGDEQGENKCVPNSNERYYGYTGAFRCLAENAGDVAFVKDVTVLQNTDGNNNEAWAKDLKLADFALLCLDGKRKPVTEARSCHLAMAPNHAVVSRMDKVERLKQVLLHQQAKFGRNGSDCPDKFCLFQSETKNLLFNDNTECLARLHGKTTYEKYLGPQYVAGITNLKKCSTSPLLEACEFLRK
- melanogenic activity (FIGS. 3A-3D) ([1]; melanocytes pre-treated with 10 uM PGE2, 24 hours of compound exposure): particularly dominant in melanogenic activity
- expression of melanogenic genes (FIG. 4, FIG. 5) ([1]; melanocytes, 24 hours of compound exposure): downregulation of melanogenic genes
- effects on melanogenesis activity (melanogenic genes): significant effects on melanogenesis activity
- Absorbance 405 nm ([2]; 500 ug/uL): 0.509
- Absorbance 490 nm ([2]; 500 ug/uL): 0.334
- Absorbance 492 nm ([2]; 500 ug/uL): 0.217
- Absorbance 405 nm ([2]; 1000 ug/uL): 0.519
- Absorbance 490 nm ([2]; 1000 ug/uL): 0.312
- Absorbance 492 nm ([2]; 1000 ug/uL): 0.226
- regulation of melanogenesis (decrease of absorption = decreased melanin formation) ([2]; melanocytes, Table 8): Regulation of melanogenesis was observed
- melanogenic activity (expression of PMEL, Tyrosinase genes, MC1/4R, EDNRB; FIGS. 10A-10D) ([3]; after treatment of endothelial cells): robust melanogenic activity
- effects on melanogenic activity (kinase expression linked to decreased MITF expression) ([3]; conclusion of Example 5): significant effects
- Absorbance 405 nm ([4]; 500 ug/uL): 0.509
- Absorbance 490 nm ([4]; 500 ug/uL): 0.334
- Absorbance 492 nm ([4]; 500 ug/uL): 0.217
- Absorbance 405 nm ([4]; 1000 ug/uL): 0.519
- Absorbance 490 nm ([4]; 1000 ug/uL): 0.312
- Absorbance 492 nm ([4]; 1000 ug/uL): 0.226
- melanocyte morphology ([5]; 24 hour post-initial dosing): circular morphology
- melanocyte morphology ([5]; 48 hours post-initial dosing, maintained through the 5 day dosing period): returned to normal morphology
